# Test results from patent publication US6462178B1, “G protein” (Yong Hou Wong, priority 1999, dated 2002).
# Read-outs that look alike come from different tables or passages of the source.
# B1: C5a: complement C5a, agonist of the C5a receptor (protein, UniProt P01031 678-751, looked up)
# C5a anaphylatoxin: TLQKKIEEIAAKYKHSVVKKCCYDGACVNNDETCEQRAARISLGPRCIKAFTECCVVASQLRANISHKDMQLGR
# modifications: C5a anaphylatoxin
# notes: complement C5a, agonist of the C5a receptor
# B2: 16z25 chimera (protein)
# chain: MARSLTWRCCPWCLTEDEKAAARVDQEINRILLEQKKQDRGELKLLLLGPGESGKSTFIKQMRIIHGAGYSEEERKGFRPLVYQNIFVSMRAMIEAMERLQIPFSRPESKHHASLVMSQDPYKVTTFEKRYAAAMQWLWRDAGIRACYERRREFHLLDSAVYYLSHLERITEEGYVPTAQDVLRSRMPTTGINEYCFSVQKTNLRIVDVGGQKSERKKWIHCFENVIALIYLASLSEYDQCLEENNQENRMKESLALFGTILELPWFKSTSVILFLNKTDILEEKIPTSHLATYFPSFQGPKQDAEAAKRFILDMYTRMYTGCVDGPEGSKKGARSRRLFSHYTCATDTSNIQFVFDAVTDVIIQNNLKYIGLC
# B3: Gα16 (protein)
# chain: MARSLTWRCCPWCLTEDEKAAARVDQEINRILLEQKKQDRGELKLLLLGPGESGKSTFIKQMRIIHGAGYSEEERKGFRPLVYQNIFVSMRAMIEAMERLQIPFSRPESKHHASLVMSQDPYKVTTFEKRYAAAMQWLWRDAGIRACYERRREFHLLDSAVYYLSHLERITEEGYVPTAQDVLRSRMPTTGINEYCFSVQKTNLRIVDVGGQKSERKKWIHCFENVIALIYLASLSEYDQCLEENNQENRMKESLALFGTILELPWFKSTSVILFLNKTDILEEKIPTSHLATYFPSFQGPKQDAEAAKRFILDMYTRMYTGCVDGPEGSKKGARSRRLFSHYTCATDTQNIRKVFKDVRDSVLARYLDEINLL
# What was measured:
# [1] = target: T1, melatonin Mel1b receptor (Homo sapiens, UniProt P49286); assay: IP accumulation, melatonin Mel1b receptor coexpressed with Gα subunit in COS-7; format: cell-based; conditions: 1 μM 2-iodomelatonin; for IP Formation % Res.: relative to basal
# T1 construct: expressed in transfected cells; host or cells: COS-7
# T1 sequence (P49286 1-362): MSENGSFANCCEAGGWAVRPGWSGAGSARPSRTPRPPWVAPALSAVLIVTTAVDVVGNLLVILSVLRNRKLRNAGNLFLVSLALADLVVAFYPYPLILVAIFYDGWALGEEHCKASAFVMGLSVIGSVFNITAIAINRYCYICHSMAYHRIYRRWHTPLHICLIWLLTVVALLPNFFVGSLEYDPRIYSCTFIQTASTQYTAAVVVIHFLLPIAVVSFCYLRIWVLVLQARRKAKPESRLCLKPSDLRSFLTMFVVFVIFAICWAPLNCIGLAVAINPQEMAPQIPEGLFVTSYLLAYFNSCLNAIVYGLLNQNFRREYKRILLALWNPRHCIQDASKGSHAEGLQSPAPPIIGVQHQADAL
# [2] = target: T2, melatonin Mel1a receptor (Homo sapiens, UniProt P48039); assay: IP accumulation, melatonin Mel1a receptor coexpressed with Gα subunit in COS-7; format: cell-based; conditions: 1 μM 2-iodomelatonin; for IP Formation % Res.: relative to basal
# T2 construct: expressed in transfected cells; host or cells: COS-7
# T2 sequence (P48039 whole entry): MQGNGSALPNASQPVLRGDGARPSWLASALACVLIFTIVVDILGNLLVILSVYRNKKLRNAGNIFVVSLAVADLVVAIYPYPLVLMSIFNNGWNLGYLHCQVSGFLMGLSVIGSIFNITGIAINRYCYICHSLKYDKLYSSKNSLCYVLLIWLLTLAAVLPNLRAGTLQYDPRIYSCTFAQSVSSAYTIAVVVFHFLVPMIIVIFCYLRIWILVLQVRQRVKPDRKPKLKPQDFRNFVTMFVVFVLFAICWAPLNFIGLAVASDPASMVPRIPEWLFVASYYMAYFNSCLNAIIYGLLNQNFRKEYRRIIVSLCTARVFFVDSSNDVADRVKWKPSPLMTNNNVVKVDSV
# [3] = target: T3, melatonin Mel1c receptor (Xenopus laevis, UniProt P49219); assay: IP accumulation, melatonin Mel1c receptor coexpressed with Gα subunit in COS-7; format: cell-based; conditions: for IP Formation Agonist / IP Formation % Res.: 1 μM 2-iodomelatonin; for IP Formation % Res.: relative to basal
# T3 construct: expressed in transfected cells; host or cells: COS-7
# T3 sequence (P49219 1-420): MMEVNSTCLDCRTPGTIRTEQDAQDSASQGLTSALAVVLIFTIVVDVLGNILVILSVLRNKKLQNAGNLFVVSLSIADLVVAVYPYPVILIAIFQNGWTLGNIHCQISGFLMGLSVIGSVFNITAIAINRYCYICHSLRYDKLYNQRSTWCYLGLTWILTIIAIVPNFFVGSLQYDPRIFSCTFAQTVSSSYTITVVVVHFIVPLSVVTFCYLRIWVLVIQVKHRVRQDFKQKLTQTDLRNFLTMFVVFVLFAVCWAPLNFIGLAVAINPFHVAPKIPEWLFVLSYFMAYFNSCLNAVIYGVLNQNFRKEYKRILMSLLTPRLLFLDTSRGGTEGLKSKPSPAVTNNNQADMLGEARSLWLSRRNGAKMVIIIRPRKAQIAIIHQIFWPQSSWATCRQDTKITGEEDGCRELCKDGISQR
# [4] = tested on: α2-adrenergic receptor; conditions: 1 μM UK14,304; for IP Formation % Res.: relative to basal
# [5] = target: complement C5a receptor
# [6] = target: formyl peptide (fMLP) receptor
# [7] = target: µ-opioid receptor
# [8] = target: δ-opioid receptor
# [9] = target: δ-opioid receptor; remark: listed apart in the source
# [10] = target: T4, δ-opioid receptor (Homo sapiens, UniProt P41143); assay: IP accumulation, δ-opioid receptor coexpressed with Gα subunit in COS-7; format: cell-based; conditions: for IP Formation Agonist / IP Formation % Res.: 100 nM DPDPE; for IP Formation % Res.: relative to basal; for stimulation of IP formation: 100 nM
# T4 construct: expressed in transfected cells; host or cells: COS-7
# T4 sequence (P41143 whole entry): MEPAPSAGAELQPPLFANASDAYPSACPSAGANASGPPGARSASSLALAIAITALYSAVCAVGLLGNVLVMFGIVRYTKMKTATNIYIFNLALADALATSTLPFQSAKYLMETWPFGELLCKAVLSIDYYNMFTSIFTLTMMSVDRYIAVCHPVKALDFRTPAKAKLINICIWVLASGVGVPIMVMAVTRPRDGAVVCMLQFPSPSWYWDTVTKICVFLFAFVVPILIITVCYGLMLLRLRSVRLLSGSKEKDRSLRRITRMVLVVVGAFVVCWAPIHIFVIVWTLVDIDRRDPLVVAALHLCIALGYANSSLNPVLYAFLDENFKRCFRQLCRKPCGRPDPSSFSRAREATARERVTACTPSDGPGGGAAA
# [11] = target: bombesin receptor
# [12] = target: somatostatin-1 receptor (SSTR1)
# [13] = target: vasopressin V2 receptor
# [14] = target: T5, complement C5a receptor (Homo sapiens, UniProt P21730); assay: IP accumulation, complement C5a receptor coexpressed with Gα subunit in COS-7; format: cell-based; conditions: 100 nM C5a; for IP Formation % Res.: relative to basal
# T5 construct: expressed in transfected cells; host or cells: COS-7
# T5 sequence (P21730 1-350): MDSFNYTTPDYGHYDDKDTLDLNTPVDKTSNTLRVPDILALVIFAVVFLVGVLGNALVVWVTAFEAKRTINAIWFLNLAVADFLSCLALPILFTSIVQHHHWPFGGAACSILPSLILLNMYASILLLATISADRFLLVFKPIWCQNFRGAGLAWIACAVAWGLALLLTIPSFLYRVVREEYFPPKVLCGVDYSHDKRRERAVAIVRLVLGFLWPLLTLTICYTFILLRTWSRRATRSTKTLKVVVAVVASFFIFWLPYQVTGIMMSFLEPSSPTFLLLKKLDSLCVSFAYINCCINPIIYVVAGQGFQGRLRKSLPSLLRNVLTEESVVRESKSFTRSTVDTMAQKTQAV
# [15] = target: dopamine D1 receptor
# [16] = target: dopamine D2 receptor
# dopamine D2 receptor, sequence (P14416 whole entry): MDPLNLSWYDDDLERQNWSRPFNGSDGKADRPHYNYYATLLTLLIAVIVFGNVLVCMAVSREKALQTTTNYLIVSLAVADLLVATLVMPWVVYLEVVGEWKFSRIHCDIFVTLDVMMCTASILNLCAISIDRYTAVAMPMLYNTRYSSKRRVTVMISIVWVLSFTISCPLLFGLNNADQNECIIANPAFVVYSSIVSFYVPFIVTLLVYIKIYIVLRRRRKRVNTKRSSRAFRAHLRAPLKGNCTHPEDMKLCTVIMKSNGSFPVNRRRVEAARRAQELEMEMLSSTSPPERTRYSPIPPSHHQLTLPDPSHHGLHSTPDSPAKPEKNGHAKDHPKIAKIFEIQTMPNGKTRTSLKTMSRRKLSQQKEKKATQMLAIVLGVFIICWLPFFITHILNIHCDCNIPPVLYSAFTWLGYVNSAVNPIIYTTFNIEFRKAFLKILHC
# [17] = target: β2-adrenergic receptor
# [18] = target: adenosine A1 receptor
# [19] = target: α2-adrenergic receptor
# [20] = target: melatonin Mel1c receptor
# [21] = target: κ-opioid receptor
# [22] = target: T6, melatonin Mel1b receptor
# T6 sequence (P49286 whole entry, species assumed, looked up): T1 sequence (P49286 1-362)
# [23] = target: melatonin Mel1a receptor
# [24] = COS-7, receptor + 16z25 chimera
# [25] = COS-7, receptor + 16z44 chimera
molecule,measurement,setting,value
COc1ccc2[nH]c(I)c(CCNC(C)=O)c2c1 [2-iodomelatonin],IP Formation Agonist,[1]; [24],108.3 ± 3.6
same,IP Formation % Res.,[1]; [24],155%
same,IP Formation Agonist,[1]; [25],113.2 ± 7.3
same,IP Formation % Res.,[1]; [25],177%
same,IP Formation Agonist,"[1]; COS-7, receptor + Gα16",31.7 ± 2.3
same,IP Formation % Res.,"[1]; COS-7, receptor + Gα16",195%
same,IP Formation Agonist,[2]; [24],80.4 ± 4.0
same,IP Formation % Res.,[2]; [24],150%
same,IP Formation Agonist,[2]; [25],91.9 ± 8.8
same,IP Formation % Res.,[2]; [25],171%
same,IP Formation Agonist,"[2]; COS-7, receptor + Gα16",45.6 ± 6.0
same,IP Formation % Res.,"[2]; COS-7, receptor + Gα16",296%
same,EC50,"[3]; COS-7, Mel1c + 16z44, read-out: EC50, formation of IP",~0.4 nM
same,stimulation of PLC activity,"[3]; COS-7, Mel1c + Gα16, 0.03-100 nM",did not stimulate PLC activity
same,IP Formation Agonist,[3]; [24],42.5 ± 6.7
same,IP Formation % Res.,[3]; [24],270%
same,IP Formation Agonist,[3]; [25],86.8 ± 7.0
same,IP Formation % Res.,[3]; [25],307%
same,IP Formation % Res.,"[3]; COS-7, receptor + Gα16",115%
"Brc1c(NC2=NCCN2)ccc2nccnc12 [UK14,304]",IP Formation Agonist,[4]; [24],116.1 ± 8.8
same,IP Formation % Res.,[4]; [24],365%
same,IP Formation Agonist,[4]; [25],126.7 ± 1.5
same,IP Formation % Res.,[4]; [25],297%
same,IP Formation Agonist,"[4]; COS-7, receptor + Gα16",107.4 ± 9.6
same,IP Formation % Res.,"[4]; COS-7, receptor + Gα16",730%
C5a (ligand),IP formation with agonist (cells coexpressing 16z44) (IP formation (unit not given)),[5],87.4
N-formylmethionyl-leucyl-phenylalanine (peptide),IP formation with agonist (cells coexpressing 16z44) (IP formation (unit not given)),[6],91.6
"[D-Ala^2,N-Me-Phe^4,Gly^5-ol]enkephalin (peptide)",IP formation with agonist (cells coexpressing 16z44) (IP formation (unit not given)),[7],68.5
"[D-Pen^2,D-Pen^5]enkephalin (peptide)",EC50 for IP formation (cells coexpressing 16z44),[8],10 nM
same,EC50 for IP formation (cells coexpressing Gα16),[8],40 nM
same,IP formation with agonist (cells coexpressing 16z44) (IP formation (unit not given)),[9],122
"[D-Pen^2,D-Pen^5]enkephalin [DPDPE]",IP Formation Agonist,[10]; [24],66.8 ± 7.1
same,IP Formation % Res.,[10]; [24],287%
same,IP Formation Agonist,[10]; [25],121.8 ± 9.1
same,IP Formation % Res.,[10]; [25],548%
same,IP Formation Agonist,"[10]; COS-7, receptor + Gα16",42.2 ± 6.1
same,IP Formation % Res.,"[10]; COS-7, receptor + Gα16",417%
same,"maximal stimulation, 16z44-mediated relative to Gα16-mediated response","[10]; COS-7, δ-opioid receptor",twice that of the Gα16-mediated response
same,DPDPE response (IP formation),"[10]; COS-7, δ-opioid receptor + 16z3, 16z6 or 16z66",failed to mediate the DPDPE response
same,IP formation,"[10]; COS-7, δ-opioid receptor + 30z16",doubled the IP formation
same,response to agonist-activated δ-opioid receptor (IP formation),"[10]; COS-7, δ-opioid receptor + 30z16z66",unable to respond
same,stimulation of IP formation,[10]; COS-7 coexpressing Gα16 and δ-opioid receptor,3 fold
same,stimulation of IP formation,[10]; COS-7 coexpressing δ-opioid receptor with either 16z25 or 16z44,3-4.5 folds
same,formation of IP,"[10]; COS-7 cotransfected with δ-opioid receptor and Gαz, agonist treatment",failed to evoke formation of IP
bombesin (peptide),IP formation with agonist (control cells without 16z44) (IP formation (unit not given)),[11],149
somatostatin (peptide),EC50 for IP formation (cells coexpressing 16z44),[12],3 nM
same,EC50 for IP formation (cells coexpressing Gα16),[12],20 nM
vasopressin (peptide),IP formation with agonist (cells coexpressing 16z44) (IP formation (unit not given)),[13],59.8
B1,IP Formation Agonist,[14]; [24],79.6 ± 6.5
same,IP Formation % Res.,[14]; [24],432%
same,IP Formation Agonist,[14]; [25],87.4 ± 7.2
same,IP Formation % Res.,[14]; [25],457%
same,IP Formation Agonist,"[14]; COS-7, receptor + Gα16",67.5 ± 8.1
same,IP Formation % Res.,"[14]; COS-7, receptor + Gα16",608%
B2,"IP formation (PLC stimulation), % Res.",[15],214 % Res.
same,"IP formation (PLC stimulation), % Res.",[16],324 % Res.
same,"IP formation (PLC stimulation), % Res.",[17],360 % Res.
same,"IP formation (PLC stimulation), % Res.",[5],432 % Res.
same,"IP formation (PLC stimulation), % Res.",[6],352 % Res.
same,"IP formation (PLC stimulation), % Res.",[18],197 % Res.
same,"IP formation (PLC stimulation), % Res.",[7],224 % Res.
same,"IP formation (PLC stimulation), % Res.",[19],365 % Res.
same,"IP formation (PLC stimulation), % Res.",[20],270 % Res.
same,"IP formation (PLC stimulation), % Res.",[21],188 % Res.
same,"IP formation (PLC stimulation), % Res.",[13],291 % Res.
same,"IP formation (PLC stimulation), % Res.",[22],155 % Res.
same,"IP formation (PLC stimulation), % Res.",[9],287 % Res.
same,"IP formation (PLC stimulation), % Res.",[23],150 % Res.
B3,"IP formation (PLC stimulation), % Res.",[5],608 % Res.
same,"IP formation (PLC stimulation), % Res.",[6],566 % Res.
same,"IP formation (PLC stimulation), % Res.",[7],134 % Res.
same,"IP formation (PLC stimulation), % Res.",[19],730 % Res.
same,"IP formation (PLC stimulation), % Res.",[20],115 % Res.
same,"IP formation (PLC stimulation), % Res.",[21],327 % Res.
same,"IP formation (PLC stimulation), % Res.",[13],332 % Res.
same,"IP formation (PLC stimulation), % Res.",[22],195 % Res.
same,"IP formation (PLC stimulation), % Res.",[9],417 % Res.
same,"IP formation (PLC stimulation), % Res.",[23],296 % Res.
